Experimental data published in patent US20100092481A1 (INSTITUTE FOR RESEARCH IN BIOMEDICINE, published 2010).

What was measured:
[1] = molecular target: T1, hCMV UL130 and UL131A co-expressed in HEK293T cells (human cytomegalovirus, UniProt P16772 1-214); test: cell-based or functional assay
[2] = molecular target: T1, hCMV UL130 and UL131A co-expressed in …; test: cell-based or functional assay; remark: listed apart in the source
[3] = molecular target: T2, hCMV gH, gL, UL128, UL130 and UL131A co-expressed in HEK293T cells (human cytomegalovirus, UniProt P12824 24-743; P16832 31-278; P16837 1-171; P16772 1-214); test: cell cross-competition, 20x excess; competitor 2F4-biotin
T2 construct: whole, on cells; also called gH + gL + UL128 + UL130 + UL131A; gH/gL/UL128-130 complex

[4] = molecular target: T2, hCMV gH, gL, UL128, UL130 and UL131A …; test: cell cross-competition, 20x excess; competitor 5A2-biotin
[5] = molecular target: T2, hCMV gH, gL, UL128, UL130 and UL131A …; test: cell cross-competition, 20x excess; competitor 10F7-biotin
[6] = molecular target: T2, hCMV gH, gL, UL128, UL130 and UL131A …; test: cell cross-competition, 20x excess; competitor 1F11-biotin
[7] = molecular target: T2, hCMV gH, gL, UL128, UL130 and UL131A …; test: cell cross-competition, 20x excess; competitor 4I22-biotin
[8] = molecular target: T2, hCMV gH, gL, UL128, UL130 and UL131A …; test: cell cross-competition, 20x excess; competitor 4N10-biotin
[9] = molecular target: T2, hCMV gH, gL, UL128, UL130 and UL131A …; test: cell cross-competition, 20x excess; competitor 2C12-biotin
[10] = molecular target: T2, hCMV gH, gL, UL128, UL130 and UL131A …; test: cell cross-competition, 20x excess; competitor 8I21-biotin
[11] = molecular target: T2, hCMV gH, gL, UL128, UL130 and UL131A …; test: cell cross-competition, 20x excess; competitor 8J16-biotin
[12] = molecular target: T2, hCMV gH, gL, UL128, UL130 and UL131A …; test: cell cross-competition, 20x excess; competitor 6G4-biotin
[13] = molecular target: T2, hCMV gH, gL, UL128, UL130 and UL131A …; test: cell cross-competition, 20x excess; competitor 15D8-biotin

T1 sequence (P16772 whole entry): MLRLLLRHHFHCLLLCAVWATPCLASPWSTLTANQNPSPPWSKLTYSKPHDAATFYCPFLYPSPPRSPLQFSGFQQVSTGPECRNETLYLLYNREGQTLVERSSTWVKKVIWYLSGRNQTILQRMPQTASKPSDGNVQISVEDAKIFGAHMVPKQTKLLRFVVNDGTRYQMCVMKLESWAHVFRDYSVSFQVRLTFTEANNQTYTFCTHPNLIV

Row | Binder | 50% Neutralization ARPE (hCMV VR1814) [1] [µg/mL] | 50% Neutralization MRC-9 (hCMV VR1814) [1] [µg/mL] | 90% Neutralization ARPE (hCMV VR1814) [2] [µg/mL] | 90% Neutralization MRC-9 (hCMV VR1814) [2] [µg/mL] | Inhibition of binding (%) [3] [%] | Inhibition of binding (%) [4] [%] | Inhibition of binding (%) [5] [%] | Inhibition of binding (%) [6] [%] | Inhibition of binding (%) [7] [%] | Inhibition of binding (%) [8] [%] | Inhibition of binding (%) [9] [%] | Inhibition of binding (%) [10] [%] | Inhibition of binding (%) [11] [%] | Inhibition of binding (%) [12] [%] | Inhibition of binding (%) [13] [%]
1 | 4I22 (antibody, V domains shown, human IgG mAb; also called 4I22-biotin) VH: QVQLVESGGGVVQPGRSLRLSCVASGFTFSSYAMHWVRQAPGKGLEWVAVISYDGDNKFYADSVKGRFRISRDTSKNTLYLEMNSLRAADTAIYYCAREELVGLMPPYYNYGLDVWGQGTTVTVSS VL: QSVLTQPPSVSAAPGQKVTISCSGSNSNIGNNYVSWYQQLPGRAPKLLIYDNDHRPSGIPDRFSGSKSGTSATLVITGLQTGDEADYYCETWDTSLSAAVVFGGGTKLTVL | < 0.01 | > 2 | 0.0015 | > 10 | 100 | 0 | 100 | 100 | 100 | 0 | 0 | 0 | 0 | – | –
2 | 10P3 (antibody, V domains shown, human IgG mAb) VH: EVQLVESGGGLVRPGGSLRLSCAASGFTFHNYRMNWVRQAPGKGLEWVANIKQDGSEKSYVDSVRGRFTTSRDNSKNSLYLQINSLRAEDTAVYYCARGEGYTYGVVYSYSAMDVWGQGTTVIVSS VL: SYELTQPPSVSVSPGQTARITCSGNVLPNQYASWYQQKPGQAPVLVIYKDTERPSGIPGRFSGSSSGTTVTLTISGVQAEDEADYYCQSADSSGADYVFGTGTKVTVL | < 0.001 | > 2 | 0.0025 | > 10 | 0 | – | – | 0 | 0 | – | 0 | 0 | – | 0 | 0
3 | 8I21 (antibody, V domains shown, human IgG mAb; also called 8I21-biotin) VH: LVELVESGGGVVQPGRSLRLSCAASGFTFSSDGMHWVRQSPGRGLEWVAFISSDGSTPYYADSVKGRFTISRDNSKNTLYLQMNSLRAEDTAMYFCAKDWALFRWLRTFDHWGQGTLVTVSS VL: not shown | – | – | – | – | 0 | 95 | – | 0 | 0 | 90 | 0 | 100 | – | 0 | 0
4 | 15D8 (antibody, V domains shown, human IgG mAb; also called 15D8-biotin) VH: EVQLVQSGAEVKKPGESLKISCQASGYSFTNYWIAWVRQMPGKGLEWMGIIYPGDSDIKYSPSFRGQVTISADKSISNAFLQWRSLRASDTAMYYCARHAIRGDGFDYWGQGTLVTVSS VL: SYELTQPPSVSVSPGQTATITCSGDKLGEKYACWYQQKPGQSPVLVMYQDTKRPSGIPERFSGSNSGNTATLTISGTRAMDEADYYCQAWDTNTVIFGGGTKLTVL | – | – | – | – | 0 | 0 | 0 | 0 | 0 | 0 | 0 | 0 | – | 0 | 100
5 | 10F7 (antibody, V domains shown, human IgG mAb; also called 10F7-biotin) VH: EVQLVESGGGLVQPGRSLRLSCTASGFTFGDYAMSWFRQAPGKGLEWVGFIRSKAYGGTTEYAASVKGRFTISRDDSKSIAYLQMNSLKTEDTAVYYCTRASSLLWLLNPQPNFDYWGQGTLVTVSS VL: SYVLTQPPSVSVAPGQTARITCGGNNIGSNNVHWYQQKPGQAPVLVVYDDSDRPSGIPERFSGSNSGNTATLTISRVEAGDEADYYCQVWDSSSDHPVFGGGTKLTVL | < 0.01 | ≤ 2 | 0.002 | > 10 | 100 | 0 | 100 | 100 | 100 | 0 | 0 | 0 | – | 0 | 0
6 | 8L13 (antibody, V domains shown, human IgG mAb) VH: QVQLLESGGGVVQPGRSLRLSCAASGFTFSNYGMHWVRQAPGKGLEWVAVIWNDGSKKYYAESVKGRFTISRDNSKNTVYLQMNSLRAEDTAVYYCARDEGVQMVFAMPDYGMDVWGQGTTVTVSS VL: SYELTQPPSVSVSPGQTASITCSGDKLGDKFACWYQQRPGQSPILVIYQDSKRPSGIPERFSGSNSGNTATLTIRGTQAMDEADYYCQAWDSSTAHYVFGTGTKVTVL | < 0.01 | > 2 | 0.001 | > 10 | – | – | 100 | 100 | – | – | – | – | – | – | –
7 | 4N10 (antibody, V domains shown, human IgG mAb; also called 4N10-biotin) VH: QVQLVQSGAEVKKPGSSVRVSCKASGGTFSSYVIIWVRQAPGQGLEWMGGVIPIFDTVNYAQKFQGRVTITADESTSTAYMELSSLKSEDTAVYYCARGILAYCGGDCYNTPYGMDVWGQGTTVTVSS VL: DIQMTQSPSILSASVGDRVTITCRASQSISSWLAWYQQKPGKAPKLLIYKASSLEIGVPSRISGSGSGTEFTLTISSLQPDDFATYYCQQYNSSWTFGQGTKVEIK | < 0.001 | ≤ 2 | 0.02 | > 10 | 0 | 100 | 0 | 0 | 0 | 100 | 0 | 90 | – | 0 | 0
8 | 3G16 (antibody, V domains shown, human IgG mAb; also called 3G16-biotin) VH: QSALTQPASVSGSPGESITISCTGTISDVGAYNSVSWYQQHSGTAPELIIYDVTNRPAGVSSRFSGSKSGNTASLTISWLQSEDEAEYYCSSYTTSDTYVFGSGTQVTVL V domain: RAQLVQSAAEMKNPGASVKVSCEASGYTFTGYYVHWMRQAPGQGLEWMGWINPMTGATKSPQKFQGRVTMTRDTSTTATHIELTRLRSDDSAVFFCARGGPTSTRITGKRHFDLWGRGTLITVAS | – | – | – | – | – | – | – | – | – | – | 0 | 0 | – | 0 | –
